Patent US20230002480A1

Legend:
Assay in all cases: cell-based or functional assay
[1] = biological target: HIV-1 Env of pseudovirus 9004SS_A3_4 (HIV-1)
[2] = biological target: HIV-1 Env of pseudovirus CNE53 (HIV-1)
[3] = biological target: HIV-1 Env of pseudovirus 1012_11_TC21_3257 (HIV-1)
[4] = biological target: HIV-1 Env of pseudovirus P1981_C5_3 (HIV-1)
[5] = biological target: HIV-1 Env of pseudovirus Ce1172_H1 (HIV-1)
[6] = biological target: HIV-1 Env of pseudovirus REJO4541.67 (HIV-1)
[7] = biological target: MuLV envelope (negative control pseudovirus)
[8] = biological target: HIV-1 Env of pseudovirus 1054_07_TC4_1499 (HIV-1)
[9] = biological target: HIV-1 Env of pseudovirus CNE52 (HIV-1)
[10] = biological target: HIV-1 Env of pseudovirus CNE21 (HIV-1)
[11] = biological target: HIV-1 Env of pseudovirus Q461.e2 (HIV-1)
[12] = biological target: HIV-1 Env of pseudovirus R2184.c04 (HIV-1)
[13] = biological target: HIV-1 Env of pseudovirus 246F C1G (HIV-1)
[14] = biological target: HIV-1 Env of pseudovirus BF1266.431a (HIV-1)
[15] = biological target: HIV-1 Env of pseudovirus X1254_c3 (HIV-1)
[16] = biological target: HIV-1 Env of pseudovirus CAAN5342.A2 (HIV-1)
[17] = biological target: HIV-1 Env of pseudovirus 6811.v7.c18 (HIV-1)
[18] = biological target: HIV-1 Env of pseudovirus Q23.17 (HIV-1)
[19] = biological target: HIV-1 Env of pseudovirus 249M B10 (HIV-1)
[20] = biological target: HIV-1 Env of pseudovirus C1080.c03 (HIV-1)
[21] = biological target: HIV-1 Env of pseudovirus 89-F1_2_25 (HIV-1)
[22] = biological target: HIV-1 Env of pseudovirus ZM109F.PB4 (HIV-1)

B1: N49P23 (antibody, V domains shown)
VH: QVRLVQSGAGARKTGASMKLSCSTSGYTFTTHHGHFINWVRQARGQGLEWMGWMNPMTGQMNIEGKFQGRVTLTRDIYSDTAYMEMTRLTTGDTGTYYCARGDFGQNYPFHYWGQGSLVIVSS
VL: LSALTQPASVSGSPGQSVTISCSGTNRYLVSWYQQHPDKAPKLIIYDDNKRPSGISDRFSASRPDDTASLTISGLQTGDEATYWCASYERFGGGTRLTVLS
IC50 [1]: 0.043 µg/mL | IC80 [1]: 0.223 µg/mL | MPI [1]: 100 | IC50 [2]: 0.026 µg/mL | IC80 [2]: 0.095 µg/mL | MPI [2]: 100 | IC50 [3]: 0.013 µg/mL | IC80 [3]: 0.085 µg/mL | MPI [3]: 100 | IC50 [4]: 0.096 µg/mL | IC80 [4]: 0.264 µg/mL | MPI [4]: 100 | IC50 [5]: > 50 µg/mL | IC80 [5]: > 50 µg/mL | MPI [5]: 0 | IC50 [6]: 0.008 µg/mL | IC80 [6]: 0.05 µg/mL | MPI [6]: 100 | IC50 [7]: > 50 µg/mL | IC80 [7]: > 50 µg/mL | MPI [7]: 9 | IC50 [8]: 0.272 µg/mL | IC80 [8]: 1.21 µg/mL | MPI [8]: 100 | IC50 [9]: 0.014 µg/mL | IC80 [9]: 0.051 µg/mL | MPI [9]: 100 | IC50 [10]: > 50 µg/mL | IC80 [10]: > 50 µg/mL | MPI [10]: 0 | IC50 [11]: 0.099 µg/mL | IC80 [11]: 0.464 µg/mL | MPI [11]: 100 | IC50 [12]: 0.008 µg/mL | IC80 [12]: 0.032 µg/mL | MPI [12]: 100 | IC50 [13]: > 50 µg/mL | IC80 [13]: > 50 µg/mL | MPI [13]: 11 | IC50 [14]: 0.083 µg/mL | IC80 [14]: 0.44 µg/mL | MPI [14]: 99 | IC50 [15]: 0.022 µg/mL | IC80 [15]: 0.111 µg/mL | MPI [15]: 100 | IC50 [16]: 0.412 µg/mL | IC80 [16]: 1.38 µg/mL | MPI [16]: 100 | IC50 [17]: 17.7 µg/mL | IC80 [17]: > 50 µg/mL | MPI [17]: 61 | IC50 [18]: 0.01 µg/mL | IC80 [18]: 0.046 µg/mL | MPI [18]: 100 | IC50 [19]: > 50 µg/mL | IC80 [19]: > 50 µg/mL | MPI [19]: 20 | IC50 [20]: 1.33 µg/mL | IC80 [20]: 11.3 µg/mL | MPI [20]: 96 | IC50 [21]: > 50 µg/mL | IC80 [21]: > 50 µg/mL | MPI [21]: 5 | IC50 [22]: 0.039 µg/mL | IC80 [22]: 0.18 µg/mL | MPI [22]: 100

B2: N49P22 (antibody, V domains shown)
V domain 1: HIQLLQSGPQVKKSGDTVRISCETSGYNFVDSRIHWVRQTPEKRLRWMGWINPLQGGVNYAPEFQGRIRMTRDTFIDTVYVDLSGLTPADTAYYYCARGIDGKSYPFHFWGHGTRVTVFS
V domain 2: RFALTQPASVSGSPGQTITITCAGGSVSWFHFPPGKTPRLIIYESSKRPSGVSPRFSGSQSGSTASLIISGLQSDDEGTYFCSILEFFGRGTLVTVLS
IC50 [1]: > 50 µg/mL | IC80 [1]: > 50 µg/mL | MPI [1]: 42 | IC50 [2]: 0.779 µg/mL | IC80 [2]: 5.11 µg/mL | MPI [2]: 93 | IC50 [3]: 15.7 µg/mL | IC80 [3]: > 50 µg/mL | MPI [3]: 53 | IC50 [4]: > 50 µg/mL | IC80 [4]: > 50 µg/mL | MPI [4]: 48 | IC50 [5]: > 50 µg/mL | IC80 [5]: > 50 µg/mL | MPI [5]: 0 | IC50 [6]: 0.792 µg/mL | IC80 [6]: 12.1 µg/mL | MPI [6]: 84 | IC50 [7]: > 50 µg/mL | IC80 [7]: > 50 µg/mL | MPI [7]: 8 | IC50 [8]: 0.654 µg/mL | IC80 [8]: 2.89 µg/mL | MPI [8]: 100 | IC50 [9]: 1.7 µg/mL | IC80 [9]: 10 µg/mL | MPI [9]: 91 | IC50 [10]: > 50 µg/mL | IC80 [10]: > 50 µg/mL | MPI [10]: 0 | IC50 [11]: 11.2 µg/mL | IC80 [11]: > 50 µg/mL | MPI [11]: 66 | IC50 [12]: 0.077 µg/mL | IC80 [12]: 0.342 µg/mL | MPI [12]: 100 | IC50 [13]: > 50 µg/mL | IC80 [13]: > 50 µg/mL | MPI [13]: 10 | IC50 [14]: > 50 µg/mL | IC80 [14]: > 50 µg/mL | MPI [14]: 0 | IC50 [15]: 3.06 µg/mL | IC80 [15]: 29.8 µg/mL | MPI [15]: 84 | IC50 [16]: 0.425 µg/mL | IC80 [16]: 1.88 µg/mL | MPI [16]: 99 | IC50 [17]: 1 µg/mL | IC80 [17]: 9.72 µg/mL | MPI [17]: 92 | IC50 [18]: 0.321 µg/mL | IC80 [18]: 2.4 µg/mL | MPI [18]: 96 | IC50 [19]: > 50 µg/mL | IC80 [19]: > 50 µg/mL | MPI [19]: 4 | IC50 [20]: 15.9 µg/mL | IC80 [20]: > 50 µg/mL | MPI [20]: 64 | IC50 [21]: > 50 µg/mL | IC80 [21]: > 50 µg/mL | MPI [21]: 10 | IC50 [22]: > 50 µg/mL | IC80 [22]: > 50 µg/mL | MPI [22]: 1
